From the domain aggregation screens of Martell et al. (2025)

Assay: soluble fraction after stress (log2 fold change); higher = more stays soluble; pooled small domains, quantitative proteomics
Details: stress: 75 degC
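Note: 20 min heating vs room temperature control held 20 min.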

Row | Sequence | soluble fraction (log2)
1 | HMIKKAILPVAGLGTRFLPASKSIPKEMVTVVDRPAIEYVVREAVEAGIEQIILVTHSSKASIENYFDR | -0.192
2 | HMIKKLDIEPIIKSVVDDFNNIYKLKRGITISYLNDGKNKYFINGIENRIEQIIANLLDNSISFSEDNKDV | 0.0165
3 | HMIKLSTNENTALRLVMERGLVTESELKGLFDNPVAVMESLISKMIETNTHWIHSERSENGEWVYAWQ | -2.01
4 | HMIKNDIGKFIKLYRETHQWSQRELAEHLGVSQRNVSYYEKGERIPPADVLKKLSTLFDVPVDVLLGLK | -1.18
5 | HMIKRDLAFSEFIAEVKAGQVREVTIKGNSISGNLNDGREFNTYAPNDPNLVKTLTDQGVLIRAIPLE | 0.0691
6 | HMILNPQELGERIRKLRLKRNKTQSYFADMLYISSSYLALIESGKRVPNLDLLIHIAKFTDVTLDYLVFG | -1.24
7 | HMILVLKPGAPEDLKNELIHDIEKMGLRVHVSVGEGTTIIGLIGDTSKISKYTFSSYEIVSNVLRVT | -0.188
8 | HMILYDDEYKGPRYRYGLHSRPLSPGAVPKGFIIHSDRPHPDFRHGTLDYPVKLPDDRAANFELIFIGEFD | -1.59
9 | HMIMMTLGEKIRSIRKAKGMTQQELAEKLNTTKQTIGKYEKGIVTNLPLFRINELARALSTTPAYLTGW | -1.46
10 | HMIMPSDATEAKLLGVLGNEPLHVDEIRNQAELPIEKVSAALALMELKGMVRQVGGMNYVAVR | -0.0915
11 | HMIMQTTSDRINQRMRDLGLQHKDLVAATGASKGTVTNWINGVNNPTGKRLVQLAQALKTTSSWLLTGN | -0.481
12 | HMINDPSALGQRAFVDELLWMAGYVPEKIEIYQTLPNNSRVYRVKLDSVNGGFIFIRWDKKKKEHYV | 0.106
13 | HMINEEELLKIENIKRKYPDSKAALMPVLYFFQEKYGFISDDSIKEISQLLNISEVDIKGVVSFYEMFHEK | -1.32
14 | HMINEVVSLRDVPSFIGKAKRDVIRIAEENNLKIKINGNGYVKEQTPNPGNKYKSNQEIKVFLEPG | -0.0743
15 | HMINFSKNIISDTTSIKEAIEILNIISGRDNHILFVLNDKRQLIGTLSDGDVRRGMLASKTISQSVTEVM | -0.402
16 | HMINIDESIDESLSEDDAVLDLLERASASFTKAQEALLEGDLGRYQTLIEQADRLVAKALELLDEKN | -0.808
17 | HMINIQYSYNDGKETLHNLSPEVIAEKIMDDPNGYHIVWKQGMVGWVNANDIDDIAKLLRQKK | -0.311
18 | HMINKDNLIEEILKFINTKIADISSNNPLFDIVAKPYISKVVTNNVSKLDKALSLIADDKGMVDADGLLT | -0.129
19 | HMINLDGIGEKISRLRKEQGVTIRELSEYTGYSVGFLSNLETGKNSPTVESLQRVAEALRTDIIEILTK | -1.2
20 | HMINLNEVLANFQKSYPNLAGFKYDQGMDALVYEGNYIRLNGYMLSRINPTLFSMSPDDIFTYLKNGF | -3.17
21 | HMINRMGRLVEALSHMIANTKPGARLPSEPELARQLGVSRATLREAMRTFEAQGMIHRRQGAGTFVVH | -1.27
22 | HMINYSQKQLIAIQDELSKRFQALENESTKNNVTGFGVGLHYIDIDLIVNTPEKQKEFREKIMDSPAFRFN | -0.893
23 | HMINYYELLKLDMNAAHEEINDAIKLESEKNTIPEDQIRTMKSIFFNTEFKKEYDQRLMNFLLT | -0.671
24 | HMIPDAIDPDGRFKWRAGEAVVGFGRHAGEPLKKIAIENPEFLRWILKADFSTDVKKIASDALKGYFPEK | -0.488
25 | HMIPDLPAVGVNVHKERRRQQLSLDALAAGSGVSKAMLSQIESGKVNPTVATMWKIAHALGVDFELLLKGE | -0.982
26 | HMIPDPPALGSNLHRERRRQQLSLDALAAASGVSKAMLSQIEADKVNPTIATMWKIAHALNIDFETLLRGE | -0.963

Row | Sequence | soluble fraction (log2)
27 | HMIPENKRVLISLTYIYGIGKKISQDILEKANIDSSIKTSQLTDDDVARIRQLIENDYLVEGELRV | 0.0291
28 | HMIPLPEDVASMRERLALTPEKADELFGLEDGSFARYEHGEEKVPFVVFQLLWLLGKYPHLIGELR | -1.2
29 | HMIPRGFSRYYILELLQKKPHTGKEIIDNAIKESGGRWNPSPGLIYPLLGRLLDENLIEETNDGKYK | -2.24
30 | HMIPSLTITVNEHSRQITRGTSLYTLRDALYPDADVLVVNGHPADSDRHLEEGDAVVLIRRGA | -0.456
31 | HMIQIQDIAFSEFLQELDKGNIVEVNIKGDLINGDLINGKKFKTVAPYDPNLVEKLSKQNVRINVEPIN | 0.157
32 | HMIQLKEHDVVRLRETIVENDEKIPAGTRGVVLSVYDGGRAFAVEVADDRAASAIITAFRDQLEVY | -0.467
33 | HMIQNTGMMESGDSIRGMALDAGFPLLMVVGYRGWTRKGNTPDSAAVYTEPFLNAFRLNYYLVEHDE | 0.3
34 | HMIQVNKTQALIIEEMRDNPNITLLELQKTLSLGRTAIQNNVSSLRKRQIIKRVGSNKNGYWEVTDK | -1.89
35 | HMIRQETYLLVRKAVGALPVQMRKIIELAMQGKKNAEIAAQLSISEGTVHTLKKTAYKKLRDRLQE | -3.12
36 | HMIRQGTKQALLIEMLQRPEGASITEIVEATSWQAHTARGAISGALKKKLGLPITSEKHPERGTVYKL | -0.862
37 | HMISAQEQALRNLKLSNGMTWKALAKALGITERSILSYVAAPGTKGYREMPAEVWHKLENISGH | -0.0432
38 | HMISDAEWTIMKALWQSEDKKMTLKEIAEAVADSGWSYTTVRTMVGRLVEKEAIEADESHPRNFRYSAA | -1.2
39 | HMISEGDIIKGTVIDVNEEEVILDLKYYAQGVIKAENLSNDPDFLAAGKISVGDEIEATVIKMDDGEGNIE | 0.529
40 | HMISESIPAKDALLRLLNTAYQTRTNAAGEFYFNDVPPGKYILQASVNDVEIIRENISINEN | -0.377
41 | HMISEWDAAYSYAKQYYEENGHLFVPKKYVTSEGAALGKWIWEQRDSYLGLSSYKISDKKIEMLEDIGMFW | -4.03
42 | HMISINVIGEMISGSYGNTPFSRTYEKDIYEQMVKLSDDADQAQTVEEYNKILAEFSLLTTEDLK | -0.546
43 | HMISKWGELVDLAVQLDIIQKSGSWFSMGDERIGQGANSVKDYLIANPDIAEKVEAEVRENLWKLN | -0.625
44 | HMISKYLRIESDILSAIREGRLKPGDKLPGQSEMRRIYNVSAITVRKAFTDLINDGYLVGVRGSGTYVAKR | -0.91
45 | HMISQATMEKMGLTNRERQLVDFIVRGASNQEISEKMFISINTVKIHVSNIFRKAGVRSRTELMDKYP | -3.26
46 | HMISSKDIINDEDGARLGKIADVEIDVATGKILSVHVYRSFKLLHLFGNKDVVQIPWNKIMKIGSDVVIVE | 0.102
47 | HMISVENLSNREFEIFQLIGNGFSTKEMAKKLNLSIYTVESHKKNIKEKLKLKNSSDLSKYAIQWVIMQN | -2.94
48 | HMITANNYFNEVERIGVETLPETLRKGHDLVVRSTNSGTNWSNYQNNESIRKVIDLYLQKLNEYVSTST | 0.294
49 | HMITGSIQPKNGKYYAVLNLYDHTGKRRPKWVSTGYTVKGNKKKAQEVLNELTRRYSAQLPPSK | -1.05
50 | HMITLPDFVGKDVETVKAWAKENGITLIVNKVEDSAKKDTVISQTPTTYDYSKIMKGSSFTVNVAKE | 0.206
51 | HMITNLEPFKDFVRGFSGLHLEGVGQEKLAAALDERIRKTGSANERDYLQLIMEDVAERLKLINILT | -0.627
52 | HMITPAARLRALKIRLSVDEVAQIVQRLVNGETVYQIGKPDTGGHAKATVGKINALRLAGQLHFL | -1.45

Row | Sequence | soluble fraction (log2)
53 | HMITTLLVENLQDVGMRLDHYLVYNLIKYSRSHIQSFIRSGDIRVNGKKVKTGYSLELKDLIHIEMP | -3.66
54 | HMITVPKVINMSETQARQTLDALGLNVTLSATQVMNDKIPYGYVAAQSYSAGKEVPAGTTIELTMSIGL | -2.03
55 | HMIVDYPSFVGKTKQELEKWAKENNIIIRYRQLSVTASDKVKAQLPATTTYKRIMKGSSIEVELEL | -2.44
56 | HMIVIMKAKAEEEDVNRVIDTIQSLGLRTQLNLGAERMVVAVIGDISKIGEDNFFRIRAMKGVENTVFVSK | -2.12
57 | HMIVMPELRGKDLKEAERLLSSHNLRYELVDSVYDKSLAPGVVVEMVPQSGNTVKPGRIIFLSINA | -0.982
58 | HMIVNTTRAPYLLGETEQDAMRLARQAGLVPEIVRQSSAEPAGTVILQSHDFDYRMRRGSVILITVSTGPL | -2.84
59 | HMIVPPAIPFRALGIFGPRDRPIVTFEDGPRLINAREGDVLDGRFILRRVGRESVDFAFVGLPPEITRRIP | -0.571
60 | HMIVSEYIIIGGDKKEYGPVSMGEVGEWVQGGRANGDSKIKKVGTEEWGRLRDFPEFSAYLS | 0.121
61 | HMIVVMARETSTDDLEAIRERIESRGMVAQINLGVERTVIGVMGSIPPDFKDEMELMNGVVEVVMISK | -2.56
62 | HMIVVMKTSASERDLQEVIARIEQFGFATRSIVGSERATVSVLGAPLPDSLQEALERMPGVEEVVRITK | -1.48
63 | HMIYAEDFVGRQGTANTILRPSGRIEIEGEVYDAYTRGEYVEAGERVVVISQEGSTLKVRVV | -0.611
64 | HMIYQEGMQVKYQGKEYVISEIQDYKTYKTIKLDDNEGYLNGFITGSEILSFRNESELDLEI | -0.208
65 | HMIYSKSDLELFGIKKIDVMEENILMLILSEYELDQTPKNILIDEAVRLSKKFGADNAYKFVNATLDTLL | -1.15
66 | HMKAETILAIPENQPERLFPNNEDEARKIYRDLAREWHTDRNKSPKAQDVFSHLSKLYDIVIDRIKNKTWT | 0.194
67 | HMKAGRNTLARQMAILEVLQKDGRALVDDLAARFETTPQTIRKDLSALAEVNQISRFHGGAALVG | -0.159
68 | HMKAKTYTVQYIDEGKIIKEEELEEGSIINAPEVTKEGHTFIGWYEGEEKYDVYEPITRNLILESKNEIN | -0.176
69 | HMKALEGMRTVFTLADLATEPVTVEITVLEAFKYTTTLEIVQRPVLREWMTNPSMLIRVYHDASTAE | 0.0452
70 | HMKAMIIVMKPGADMATISKVLKTIETNGFKPHLSKGEETTVIGVIGDERKLNPDIFSTLEGVERIVPVA | 0.251
71 | HMKASTRELLDFVLSQRGVSTASVAKALGISVQNASTRLKKLSNEGLIIRSEASSLTGGIEFLYS | -0.822
72 | HMKDASEFLGAKGKTITPLRPTGAAVINGEKVDVLAEGEFIPKNAEIVVIKVEGSKIIVRNANN | -0.061
73 | HMKDDLTWSEGLMPNVVGMGLRDAMFMLENSGLRVNYSGRGKVTRQSPQPGVRIKRGATVAIELRL | -1.89
74 | HMKDEHYLYIKARVDNGDYPHLSELKSAEEIELVMPKLLQDGIVEFNKETGEYTIGEDVKAEIERL | 0.12
75 | HMKDESYALGTRLLSHALGKTKLEDLAQEKIDEVVQQSGNKTLEQLLTNIGLGNALSIGIARQLT | 0.345
76 | HMKDGAKYFQLFGLLKNEINRGIYQSGQKIPGENELAEKYGMSRQTVRQALSLLEQESLIERRQGSGTYVR | -0.121
